In the supplement of paper PMC10567573:
± gives the standard deviation.

Assay: protein stability index of a GFP-peptide fusion (GPS, HEK-293T) (PSI 1-6); higher = more stable
[1] = treatment: DMSO, c terminus: a fixed tail appended
[2] = treatment: MLN4924 1 uM, 8 h, c terminus: a fixed tail appended
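Also: 24-mer peptide tiles fused after GFP, lentivirally expressed, FACS-sorted into six equal bins by GFP/DsRed ratio, decoded by Illumina sequencing, PSI is the read-weighted mean bin number.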

Sequence	protein stability index [1]	protein stability index [2]	protein stability index (treatment: DMSO, c terminus: native)	protein stability index (treatment: MLN4924 1 uM, 8 h, c terminus: native)
DLHKMNHVTPPNVSLGATGGPPAG [JUNB]	4.38 ± 0.19	4.39 ± 0.078		
DLKLRKFVFSTEERTQLRLESLED [TRIB1]	3.74 ± 0.1	4.2 ± 0.43		
DLYNWEVAIFGPPNTYYEGGYFKA [CDC34]	2.65 ± 0.5	2.51 ± 0.95		
DMAGDWHWALRVTPGLGVVAVLLL [SPNS1]	2.82 ± 0.41	2.5 ± 0.48		
DNILSLINVNDLSFVTGSHVGELI [WDR41]	2.36 ± 0.32	2.63 ± 0.31		
DNVRSLKVESGAWIGYEHTSFCGQ [CRYBA1]	3.14 ± 0.2	3.07 ± 0.22		
DPALRRRRRGPRNKKRGWRRLAQE [NOP53]	4.73 ± 0.3	4.92 ± 0.24		
DPDVGVNSLQSYQLSPNKHFSLRV [PCDHGA10]	2.6 ± 0.25	2.51 ± 0.24		
DPRYNKWMQVASLNEKRTFFHLSA [KLHL13]	2.36 ± 0.32	2.12 ± 0.13		
DPSKRALSRDTVQESYENVDSLES [ZNF263]	5.51 ± 0.065	5.56 ± 0.18		
DQGDEGKEGRPGIPGLPGLRGLPG [SCARA5]	5 ± 0.13	4.93 ± 0.29		
DQPMGGWEMIRKIGDTSVSYKYTS [LMNB1]	3.1 ± 0.31	3.2 ± 0.28		
DRFSGETSAAALSPMSAATLGGLN [SMTNL2]	4.46 ± 0.14	4.21 ± 0.24		
DRGGWGISPRGAGYTFGQDISETF [PPP2CA]	3.21 ± 0.18	3.3 ± 0.34		
DRGKDSVEILMILFAFMLVYPKEF [PPEF2]	2.97 ± 0.19	2.71 ± 0.61		
DRHGVYGLQRNLLVENIIDIYKQE [TRIM63]	3.2 ± 0.32	3.39 ± 0.24		
DSFTTNKEHAVTMPCTWVMACAYA [GNB5]	2.73 ± 0.79	2.53 ± 0.58		
DSLPMDAYTHGCILHPELTVDSMI [GDAP1]	3.29 ± 0.26	3.47 ± 0.11		

Sequence	protein stability index [1]	protein stability index [2]	protein stability index (treatment: DMSO, c terminus: native)	protein stability index (treatment: MLN4924 1 uM, 8 h, c terminus: native)
DSRRVTKENSHQVKEELSQKFDTL [TRIM63]	5.08 ± 0.066	5.02 ± 0.28		
DSTTTRQRRSRQNPQSPPQDSSVT [HDAC6]	5.13 ± 0.24	5.53 ± 0.098		
DVDLLDSKVIEILDSQTEIYQYVQ [DLC1]	3.41 ± 0.31	3.62 ± 0.38		
DVELLQDLGDIVARSESVLLHMPQ [TRIM43]	3.18 ± 0.2	3.25 ± 0.35		
DVGDWRKNIEEKSGMEGRKKMFES [TNNI2]	4.3 ± 0.14	4.38 ± 0.25		
DVSLVGGPADCSPPHPAPAPQHPA [DYRK1B]	5.02 ± 0.16	5.14 ± 0.12		
DWRKNIEEKSGMEGRKKMFESES [TNNI2]			3.04 ± 0.93	3.86 ± 0.92
EAAEAVRPEERKTCRNPACGPQWE [ADAMTSL2]	4.8 ± 0.27	4.74 ± 0.21		
EAFRLKQQLHARYVLNLLYETKKH [PPEF2]	2.5 ± 0.61	2.36 ± 0.33		
ECSYTSADGQRHHSKLLVSGFWGV [DHCR7]	2.09 ± 0.1	2.17 ± 0.31		
EDEDIYKLRHDLKKTSITQQPSKH [PLK2]	4.98 ± 0.35	5.1 ± 0.13		
EDEDPEEMPKSSDFLIHPPERSDL [PCDHGC5]	5.41 ± 0.13	5.4 ± 0.24		
EDHLAVKHFSVEGQLEFRALLFIP [HSP90AB1]	1.57 ± 0.54			
EDQVVVNKAAVMVHQLSKKEASRH [CTNNB1]	4.82 ± 0.25	4.8 ± 0.22		
EEFAAGPAQSGILSDREVVNLFLH [BTBD1]	3.16 ± 0.56	3.46 ± 0.22		
EEPELSPAYLISEAMRRSRMSLYC [GFOD1]	2.43 ± 0.23	2.37 ± 0.3		
EFLGNRSVILNHMAREHAFNIGLP [ZNF277]	2.21 ± 0.19	2.26 ± 0.2		
EFLWGPRAHAEIRKMSLLKFLAKV [MAGEA10]	2.38 ± 0.3	2.66 ± 0.17		
